Laboratory results from patent publication US20120269817A1 (Bayer, published 2012).

T1: mouse tissue factor pathway inhibitor (TFPI) (mouse, UniProt O54819 29-289, limits assumed)
T1 construct: Bought protein; also called mouse TFPI; mTFPI
T1 sequence (looked up): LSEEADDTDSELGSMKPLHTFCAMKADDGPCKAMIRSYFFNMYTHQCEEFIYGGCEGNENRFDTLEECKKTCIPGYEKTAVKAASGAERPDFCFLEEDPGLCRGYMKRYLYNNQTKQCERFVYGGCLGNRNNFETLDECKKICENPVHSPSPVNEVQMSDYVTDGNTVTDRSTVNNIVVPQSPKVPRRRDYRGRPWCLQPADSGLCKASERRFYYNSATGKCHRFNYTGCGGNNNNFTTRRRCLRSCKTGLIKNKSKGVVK

T2: human tissue factor pathway inhibitor (TFPI) (human, UniProt P10646 29-304, limits assumed)
T2 construct: Bought protein; also called human TFPI; hTFPI
T2 sequence (looked up): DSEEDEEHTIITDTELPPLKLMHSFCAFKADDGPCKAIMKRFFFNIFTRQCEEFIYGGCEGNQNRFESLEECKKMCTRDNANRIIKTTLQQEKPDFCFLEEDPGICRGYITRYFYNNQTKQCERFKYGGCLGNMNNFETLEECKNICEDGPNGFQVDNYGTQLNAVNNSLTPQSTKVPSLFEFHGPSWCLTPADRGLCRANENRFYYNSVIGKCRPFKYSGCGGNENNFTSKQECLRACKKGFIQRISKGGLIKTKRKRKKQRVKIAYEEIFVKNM

T3: human TFPI K1 (human, UniProt P10646 29-107, limits assumed)
T3 construct: domain: K1; also called Kunitz domain 1
T3 sequence (looked up): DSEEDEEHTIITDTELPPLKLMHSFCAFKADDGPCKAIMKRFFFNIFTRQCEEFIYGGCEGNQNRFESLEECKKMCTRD


What was measured:
[1] = biological target: T4, BSA (bovine, UniProt P02769 25-607); test: ELISA
T4 construct: also called bovine serum albumin
Outline: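 Fab from E. coli TG1 lysates bound to plates coated with human TFPI, or with mouse TFPI for cross-reactivity, with BSA and lysozyme as negative controls. Detection by HRP-anti-human Fab with AmplexRed/H2O2; signal ≥5-fold over background scored positive.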

[2] = biological target: T1, mouse tissue factor pathway inhibitor …; test: ELISA, Fab on coated mouse TFPI
Experimental: To select antibody clones that bind to human TFPI, Fab genes of the phage clones from the second and third round of panning were subcloned into a bacterial expression vector and expressed in E. coli strain TG1. The bacterial lysate was added to the wells of the human TFPI-coated Maxisorp plates. After washing, HRP-conjugated goat anti-human Fab was used as a detection antibody and the plates were developed by adding AmplexRed (Invitrogen) with hydrogen peroxide. A signal of at least five-fold higher than the background was considered as positive. The cross reactivity of the anti-human TFPI antibodies to mouse TFPI was determined by a similar mouse TFPI-binding ELISA. The plates were coated with mouse TFPI (R&D System), BSA and lysozyme. The later two antigens were used as negative controls.

[3] = biological target: T2, human tissue factor pathway inhibitor …; test: Biacore, TFPI on CM5 chip, Fab in mobile phase
Outline: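 Surface plasmon resonance with human or mouse TFPI amine-coupled to a CM5 chip at approximately 300 RU. Purified Fabs were injected in mobile phase at 0.1, 0.4, 1.6, 6.4 and 25 nM. Kinetics and binding affinity were derived from the sensorgrams.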

[4] = biological target: T2, human tissue factor pathway inhibitor …; test: ELISA, Fab on coated TFPI
Outline: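 Purified Fabs titrated on human or mouse TFPI-coated plates; bound Fab detected with HRP anti-human Fab and AmplexRed/H2O2 to derive EC50. Affinity and kinetics by Biacore: TFPI amine-coupled on CM5 (~300 RU), Fabs in mobile phase at 0.1, 0.4, 1.6, 6.4 and 25 nM.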

[5] = biological target: T2, human tissue factor pathway inhibitor …; test: cell-based or functional assay
[6] = biological target: T3, human TFPI K1; test: Western blots and ELISA
Experimental: Western blots and ELISA were used to determine which domain(s) of TFPI of the inhibitory antibodies bind. Recombinant full length human TFPI or TFPI domains were used for these studies. ELISA was similar to Example 3. In the Western Blot, human TFPI or domains were run on 4-12% Bis-Tris SDS PAGE running buffer MES (Invitrogen, Carlsbad, Calif.) and then transferred to cellulose membrane. After incubation with inhibitory antibodies for 10 min, the membrane was washed three times using SNAPid system (Millipore, Billerica, Mass.). A HRP conjugated donkey anti-mouse antibody (Pierce, Rockford, Ill.) at 1 to 10,000 dilution was incubated with the membrane for 10 min. After a similar wash step, the membrane was developed using SuperSignal substrate (Pierce, Rockford, Ill.). Whereas the control anti-Kunitz domain 1 antibody binds to full length TFPI, truncated TFPI and domains, inhibitory anti-TFPI antibodies only bind to TFPI containing Kunitz domain 2.

[7] = biological target: T2, human tissue factor pathway inhibitor …; test: ELISA, IgG on coated human TFPI
[8] = biological target: T2, human tissue factor pathway inhibitor …; test: ELISA, IgG against Fab
[9] = biological target: T1, mouse tissue factor pathway inhibitor …; test: ELISA, IgG against Fab
[10] = biological target: T1, mouse tissue factor pathway inhibitor …; test: ELISA, IgG on coated mouse TFPI

T4 sequence (P02769 25-607 limits assumed): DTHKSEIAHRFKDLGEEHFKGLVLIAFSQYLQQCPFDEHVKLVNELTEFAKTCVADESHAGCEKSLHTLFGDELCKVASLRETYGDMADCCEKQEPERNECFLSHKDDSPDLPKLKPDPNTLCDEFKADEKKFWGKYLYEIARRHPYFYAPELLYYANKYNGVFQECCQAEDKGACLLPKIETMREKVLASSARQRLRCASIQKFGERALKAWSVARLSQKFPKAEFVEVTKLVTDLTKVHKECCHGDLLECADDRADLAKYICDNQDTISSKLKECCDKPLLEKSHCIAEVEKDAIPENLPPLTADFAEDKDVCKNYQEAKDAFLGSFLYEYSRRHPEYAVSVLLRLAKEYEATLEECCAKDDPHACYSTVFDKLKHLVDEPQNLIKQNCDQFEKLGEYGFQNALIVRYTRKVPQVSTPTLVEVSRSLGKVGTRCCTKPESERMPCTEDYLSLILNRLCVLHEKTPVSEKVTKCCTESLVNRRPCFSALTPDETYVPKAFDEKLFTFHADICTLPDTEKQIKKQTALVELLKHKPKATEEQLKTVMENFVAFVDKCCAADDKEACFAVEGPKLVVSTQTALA

Row | Binder | binding result [1] | binding result [2] | Kd [3] [nM] | EC50 [4] [nM] | % inhibition of hTFPI activity [5] [%] | dPT in hemoA plasma [5] [s] | binding result [6] | EC50 [7] [nM] | fold change of EC50 against 2G6-Fab [8] [fold] | fold change of EC50 against 2G6-Fab [9] [fold] | EC50 [10] [nM]
1 | TP-4G8 Fab (Fab, V domains shown, Human Fab from HuCal Gold, expressed in E. coli TG1) VH: QVQLVESGGGLVQPGGSLRLSCAASGFTFSTYAMHWVRQAPGKGLEWVSTISGYGSFTYYADSVKGRFTISRDNSKNTLYLQMNSLRAEDTAVYYCARNGRKYGQMDNWGQGTLVTVSS VL: DIELTQPPSVSVAPGQTARISCSGDKLGSKSVHWYQQKPGQAPVLVIYRDTDRPSGIPERFSGSNSGNTATLTISGTQAEDEADYYCQTYDYILNVFGGGTKLTVLG | no binding | no binding | 25.2 | 847 | 39 | 73.9 |  |  |  |  | 
2 | TP-2G7 Fab (Fab, V domains shown, Human Fab from HuCal Gold, expressed in E. coli TG1) VH: QVQLVESGGGLVQPGGSLRLSCAASGFTFNSYAMSWVRQAPGKGLEWVSNISSNSSNTYYADSVKGRFTISRDNSKNTLYLQMNSLRAEDTAVYYCARKGGGEHGFFPSDIWGQGTLVTVSS VL: DIELTQPPSVSVAPGQTARISCSGDNLGTYYVHWYQQKPGQAPVLVIYGDNNRPSGIPERFSGSNSGNTATLTISGTQAEDEADYYCQTYDSNNESIVFGGGTKLTVLG | no binding | no binding | 26.9 | 23.5 | 55 | 72.2 |  |  |  |  | 
3 | TP-3G1 chimeric IgG (antibody, V domains shown, Chimeric IgG: human variable regions on mouse constant regions, murine IgG1 isotype, made in HKB11 cells) VH: QVQLQQSGPGLVKPSQTLSLTCAISGDSVSSNSGGWGWIRQSPGRGLEWLGLIYYRSKWYNAYAVSVKSRITINPDTSKNQFSLQLNSVTPEDTAVYYCARYLGSNFYVYSDVWGQGTLVTVSS VL: DIQMTQSPSSLSASVGDRVTITCRASQGISSYLHWYQQKPGKAPKLLIYGASTLQSGVPSRFSGSGSGTDFTLTISSLQPEDFATYYCQQQNGYPFTFGQGTKVEIKR |  |  |  |  |  |  | no binding |  |  |  | 
4 | 2G6-IgG (antibody, V domains shown, Chimeric IgG: human variable regions on mouse constant regions, murine IgG1 isotype, made in HKB11 cells; also called IgG-2G6; TP-2G6 chimeric IgG) VH: QVQLQQSGPGLVKPSQTLSLTCAISGDSVSSSSAAWSWIRQSPGRGLEWLGIIYYRSKWYNDYAVSVKSRITINPDTSKNQFSLQLNSVTPEDTAVYYCARHSMVGFDVWGQGTLVTVSS VL: DIVLTQSPATLSLSPGERATLSCRASQYVTSSYLAWYQQKPGQAPRLLIYGSSRATGVPARFSGSGSGTDFTLTISSLEPEDFATYYCQQYSSSPITFGQGTKVEIKR |  |  |  |  |  |  | no binding | 0.22 | 2 | 10 | 0.51

Further lines, results first:

Row | binding result [1] | binding result [2] | Kd [3] [nM] | EC50 [4] [nM] | % inhibition of hTFPI activity [5] [%] | dPT in hemoA plasma [5] [s] | binding result [6] | EC50 [7] [nM] | fold change of EC50 against 2G6-Fab [8] [fold] | fold change of EC50 against 2G6-Fab [9] [fold] | EC50 [10] [nM] | Binder
5 | no binding | no binding | 2.64 | 0.4 | 21 | 70.9 |  |  |  |  |  | TP-2C1 Fab (Fab, V domains shown, Human Fab from HuCal Gold, expressed in E. coli TG1) VH: QVQLVESGGGLVQPGGSLRLSCAASGFTFSPYVMSWVRQAPGKGLEWVSSISSSSSNTYYADSVKGRFTISRDNSKNTLYLQMNSLRAEDTAVYYCARGDSYMYDVWGQGTLVTVSS VL: DIELTQPPSVSVAPGQTARISCSGDSIGSYYAHWYQQKPGQAPVLVIYYDSKRPSGIPERFSGSNSGNTATLTISGTQAEDEADYYCQAYTGQSISRVFGGGTKLTVLG
6 | no binding | no binding | 32.2 | 72.5 | 28 | 76.5 |  |  |  |  |  | TP-4H8 Fab (Fab, V domains shown, Human Fab from HuCal Gold, expressed in E. coli TG1) VH: QVQLVESGGGLVQPGGSLRLSCAASGFTFSDHAMHWVRQAPGKGLEWVSVIEYSGSKTNYADSVKGRFTISRDNSKNTLYLQMNSLRAEDTAVYYCARGDYYPYLVFAIWGQGTLVTVSS VL: DIELTQPPSVSVAPGQTARISCSGDSIGKKYVHWYQQKPGQAPVLVIYGDNNRPSGIPERFSGSNSGNTATLTISGTQAEDEADYYCSTADSVITYKNVFGGGTKLTVLG
7 |  |  |  |  |  |  | no binding |  |  |  |  | TP-3C2 chimeric IgG (antibody, V domains shown, Chimeric IgG: human variable regions on mouse constant regions, murine IgG1 isotype, made in HKB11 cells) VH: QVQLQQSGPGLVKPSQTLSLTCAISGDSVSSSSAAWSWIRQSPGRGLEWLGMIYYRSKWYNHYAVSVKSRITINPDTSKNQFSLQLNSVTPEDTAVYYCARGGSGVMDVWGQGTLVTVSS VL: DIQMTQSPSSLSASVGDRVTITCRASQSITNYLNWYQQKPGKAPKLLIYDVSNLQSGVPSRFSGSGSGTDFTLTISSLQPEDFAVYYCQQYSGYPLTFGQGTKVEIKR
8 | no binding | no binding | 35.9 | 36.9 | 29 | 71.9 |  |  |  |  |  | TP-4E8 Fab (Fab, V domains shown, Human Fab from HuCal Gold, expressed in E. coli TG1) VH: QVQLVESGGGLVQPGGSLRLSCAASGFTFNDYAMSWVRQAPGKGLEWVSLIESVSSSTYYADSVKGRFTISRDNSKNTLYLQMNSLRAEDTAVYYCARTIGVLWDDVWGQGTLVTVSS VL: DIELTQPPSVSVAPGQTARISCSGDALGSKYVSWYQQKPGQAPVLVIYGDNKRPSGIPERFSGSNSGNTATLTISGTQAEDEADYYCQSYTYSLNQVFGGGTKLTVLG
9 |  |  |  |  |  |  | no binding |  |  |  |  | TP-4B7 chimeric IgG (antibody, V domains shown, Chimeric IgG: human variable regions on mouse constant regions, murine IgG1 isotype, made in HKB11 cells) VH: QVQLQQSGPGLVKPSQTLSLTCAISGDSVSSNSAAWSWIRQSPGRGLEWLGIIYKRSKWYNDYAVSVKSRITINPDTSKNQFSLQLNSVTPEDTAVYYCARWHSDKHWGFDYWGQGTLVTVSS VL: DIVMTQSPLSLPVTPGEPASISCRSSQSLVFSDGNTYLNWYLQKPGQSPQLLIYKGSNRASGVPDRFSGSGSGTDFTLKISRVEAEDVGVYYCQQYDSYPLTFGQGTKVEIKR
